Reference: the supplement of paper PMC7877785
± gives the uncertainty stated by the source.

Experiment: self-splicing fitness, log relative to wild type (ln ratio); higher = more splicing; Tetrahymena group I intron in knt gene, E. coli kanamycin selection, DiMSum; sequences stand for … in CUCUCU…GGAGGGAAAAGUUAUCAGGCAUGCACCUGGUAGCUAGUCUUUAAACCAAUAGAUUGCAUCGGUUUAAAAGGCAAGACCGUCAAAUUGCGGGAAAGGGGUCAACAGCCGUUCAGUACCAAGUCUCAGGGGAAACUUUGAGAUGGCCUUGCAAAGGGUAUGGUAAUAAGCUGACGGACAUGGUCCUAACCACGCAGCCAAGUCCUAAGUCAACAGAUCUUCUGUUGAUAUGGAUGCAGUUCACAGACUAAAUGUCGGUCGGGGAAGAUGUAUUCUUCUCAUAAGAUAUAGUCGGACCUCUCCUUAAUGGGAGCUAGCGGAUGAAGUGAUGCAACACUGGAGCCGCUGGGAACUAAUUUGUAUGCGAAAGUAUAUUGAUUAGUUUUGGAGUACUCGUGGUCG
Summary of the method: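 Colonies from six replicate transformations of E. coli BL21(DE3) were pooled and amplicon-sequenced on an Illumina HiSeq 2500. The library placed an intron with all eight P1ex-region nucleotides randomised inside the knt kanamycin-resistance gene on pET-22b(+), and cells grew overnight at 37°C or 30°C on LB agar with or without 25 μg/mL kanamycin (plus 100 μg/mL carbenicillin, 50 μM IPTG, 0.2% rhamnose). Fitness is the DiMSum error-weighted combination of wild-type-normalised replicate fold changes, kanamycin versus none.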

Sequence	self-splicing fitness (ln) (30 °C)	self-splicing fitness (ln) (37 °C)
AACCAGCAAUAUUACGUCCC	-0.726 ± 0.13	0.292 ± 0.18
AACCAGCAAUAUUACGUCUU	0.0745 ± 0.044	0.393 ± 0.063
AACCAGCAAUAUUACGUGGA	-2.33 ± 0.093	-1.13 ± 0.08
AACCAGCAAUAUUACGUGGC	-3.06 ± 0.12	-2.99 ± 0.17
AACCAGCAAUAUUACGUGUA	-0.891 ± 0.041	-0.409 ± 0.049
AACCAGCAAUAUUACGUUCC	-2.94 ± 0.17	-0.871 ± 0.14
AACGAGCAAUAUUACGAAAG	-2.83 ± 0.48	-1.43 ± 0.32
AACGAGCAAUAUUACGAAGG	–	-2.3 ± 0.2
AACGAGCAAUAUUACGAAUC	-3.96 ± 0.26	-2.5 ± 0.41
AACGAGCAAUAUUACGACAC	–	-1.46 ± 0.32
AACGAGCAAUAUUACGAGUA	-3.14 ± 0.17	-2.12 ± 0.14
AACGAGCAAUAUUACGCACG	-2.8 ± 0.38	-0.837 ± 0.25
AACGAGCAAUAUUACGCAUA	-2.86 ± 0.38	-1.26 ± 0.35
AACGAGCAAUAUUACGCAUU	-1.24 ± 0.12	-2.9 ± 0.24
AACGAGCAAUAUUACGCGCA	-1.28 ± 0.094	-2.1 ± 0.12
AACGAGCAAUAUUACGCGUA	-2.19 ± 0.19	-1.72 ± 0.18
AACGAGCAAUAUUACGCUGU	-2.67 ± 0.45	-2.99 ± 0.4
AACGAGCAAUAUUACGGAGU	–	-1.74 ± 0.14
AACGAGCAAUAUUACGGCCU	-1.16 ± 0.2	-0.95 ± 0.2
AACGAGCAAUAUUACGGCUA	-1.23 ± 0.15	-0.829 ± 0.18
AACGAGCAAUAUUACGGUAC	–	-1.34 ± 0.22
AACGAGCAAUAUUACGGUCC	–	-1.13 ± 0.31
AACGAGCAAUAUUACGUAAC	-2.83 ± 0.2	-1.83 ± 0.44
AACGAGCAAUAUUACGUACA	-3.11 ± 0.17	-2.19 ± 0.14
AACGAGCAAUAUUACGUAUG	-4.21 ± 0.23	-2.59 ± 0.17

Sequence	self-splicing fitness (ln) (30 °C)	self-splicing fitness (ln) (37 °C)
AACGAGCAAUAUUACGUGAC	–	-2.76 ± 0.23
AACGAGCAAUAUUACGUGCC	-3.37 ± 0.27	-1.85 ± 0.3
AACUAGCAAUAUUACGAACU	-0.149 ± 0.088	-0.455 ± 0.098
AACUAGCAAUAUUACGACUA	-0.192 ± 0.2	-1.24 ± 0.15
AACUAGCAAUAUUACGAGGA	-1.71 ± 0.1	-1.89 ± 0.11
AACUAGCAAUAUUACGAUCU	-0.146 ± 0.082	0.426 ± 0.098
AACUAGCAAUAUUACGAUGG	-2.49 ± 0.17	-0.739 ± 0.14
AACUAGCAAUAUUACGCAAC	-3.49 ± 0.21	-2.08 ± 0.18
AACUAGCAAUAUUACGCAGU	-4.36 ± 0.41	-1.96 ± 0.21
AACUAGCAAUAUUACGCGAA	-2.81 ± 0.16	-1.05 ± 0.12
AACUAGCAAUAUUACGCGUA	-1.19 ± 0.09	-0.289 ± 0.083
AACUAGCAAUAUUACGCUAU	-2.88 ± 0.14	-1.84 ± 0.13
AACUAGCAAUAUUACGCUCC	-1.39 ± 0.15	-0.732 ± 0.19
AACUAGCAAUAUUACGCUUG	-2.18 ± 0.11	-1.16 ± 0.12
AACUAGCAAUAUUACGGAGC	-1.86 ± 0.15	-0.604 ± 0.15
AACUAGCAAUAUUACGGGAU	-1.53 ± 0.079	-0.855 ± 0.081
AACUAGCAAUAUUACGGGGC	-3.61 ± 0.23	-3.1 ± 0.35
AACUAGCAAUAUUACGUAAA	-1.87 ± 0.11	-1.01 ± 0.11
AACUAGCAAUAUUACGUACA	-1.19 ± 0.099	-0.373 ± 0.13
AACUAGCAAUAUUACGUCUC	-3.37 ± 0.16	-2.54 ± 0.15
AACUAGCAAUAUUACGUGAC	-2.92 ± 0.12	-1.38 ± 0.12
AACUAGCAAUAUUACGUUGG	-3.74 ± 0.22	-3.5 ± 0.22
AAGAAGCAAUAUUACGAAUC	-2.91 ± 0.15	-2.64 ± 0.26
AAGAAGCAAUAUUACGAAUG	-2.19 ± 0.13	-1.66 ± 0.14
AAGAAGCAAUAUUACGACCC	-1.01 ± 0.16	-0.395 ± 0.17
